# Laboratory results from PMC10786891, “Massively parallel profiling of RNA-targeting CRISPR-Cas13d”.
# Substitutions are numbered along the chain they refer to. Names may count otherwise.
# T1: EsCas13d, nuclease-dead (Eubacterium siraeum, UniProt B0MS50, R295A;H300A;R849A;H854A)
# T1 sequence: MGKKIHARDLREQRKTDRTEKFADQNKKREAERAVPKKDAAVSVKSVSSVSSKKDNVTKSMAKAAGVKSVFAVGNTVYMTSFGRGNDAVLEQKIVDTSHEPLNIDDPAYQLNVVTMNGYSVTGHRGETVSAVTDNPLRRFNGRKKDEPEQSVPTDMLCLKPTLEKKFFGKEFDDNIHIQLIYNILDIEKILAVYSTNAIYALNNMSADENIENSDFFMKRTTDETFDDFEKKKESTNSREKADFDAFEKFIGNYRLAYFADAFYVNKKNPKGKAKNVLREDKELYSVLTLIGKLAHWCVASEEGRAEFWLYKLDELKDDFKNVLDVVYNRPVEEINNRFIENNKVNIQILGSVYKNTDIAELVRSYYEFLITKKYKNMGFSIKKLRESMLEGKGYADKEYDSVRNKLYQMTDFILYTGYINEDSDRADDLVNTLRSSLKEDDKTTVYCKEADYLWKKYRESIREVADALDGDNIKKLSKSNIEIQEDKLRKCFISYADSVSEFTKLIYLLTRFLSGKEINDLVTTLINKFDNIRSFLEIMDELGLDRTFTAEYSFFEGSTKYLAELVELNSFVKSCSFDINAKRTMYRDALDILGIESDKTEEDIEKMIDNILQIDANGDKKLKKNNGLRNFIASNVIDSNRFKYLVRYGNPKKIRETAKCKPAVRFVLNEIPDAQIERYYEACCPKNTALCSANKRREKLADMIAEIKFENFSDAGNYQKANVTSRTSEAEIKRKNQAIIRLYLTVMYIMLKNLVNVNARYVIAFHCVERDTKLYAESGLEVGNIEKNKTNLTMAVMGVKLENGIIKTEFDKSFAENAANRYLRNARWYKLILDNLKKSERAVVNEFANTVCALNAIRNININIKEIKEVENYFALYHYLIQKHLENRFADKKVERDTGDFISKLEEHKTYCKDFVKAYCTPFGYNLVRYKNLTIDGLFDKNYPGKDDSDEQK
# B1: target 1 insA 3' of 13,insC 3' of 10 (mixed)
# RNA 1: CACCCGUGCAAAAAUGCAGGGGUCUAAAACUGAGCGGAUAACCUCUCUAUGG
# RNA 2: GGGAAUGGAUCCACAUCUACGAAUUCGUACCAUAGAGAGAGUUCAUCCGCUCACCGAGAUCGGAAGAGCACACGU
# B2: target 1 insU 3' of 22,insA 3' of 19 (mixed)
# RNA 1: B1 RNA 1
# RNA 2: B1 RNA 2 with C31U, A32C, U33A, A34U, G35A, U42G, C44U
# B3: target 1 C2U,U3A (mixed)
# RNA 1: B1 RNA 1
# RNA 2: GGGAAUGGAUCCACAUCUACGAAUUCGUACCAUAGAGAGGUUAUCCGCAUACCGAGAUCGGAAGAGCACACGU
# B4: target 1 C21U,C22U (mixed)
# RNA 1: B1 RNA 1
# RNA 2: B3 RNA 2 with C30U, C31U, A49U, U50C
# B5: target 2 MT 5'PFS UAG 3'PFS AGG (mixed)
# RNA 1: CACCCGUGCAAAAUUGCAGGGGUCUAAAACCUUCUCCAAAUUGUUUCAUCCU
# RNA 2: GGGAAUGGAUCCACAUCUACGAAUUCUAGAGGAUGAAACAAUUUGGAGAAGAGGAGAUCGGAAGAGCACACGU
# B6: target 2 MT 5'PFS CAC 3'PFS CCA (mixed)
# RNA 1: B5 RNA 1
# RNA 2: B5 RNA 2 with U27C, G29C, A52C, G53C, G54A
# B7: target 2 MT 5'PFS UUG 3'PFS UCU (mixed)
# RNA 1: B5 RNA 1
# RNA 2: B5 RNA 2 with A28U, A52U, G53C, G54U
# B8: target 2 MT 5'PFS GUA 3'PFS CCG (mixed)
# RNA 1: B5 RNA 1
# RNA 2: B5 RNA 2 with U27G, A28U, G29A, A52C, G53C
# B9: target 2 MT 5'PFS AUC 3'PFS CAG (mixed)
# RNA 1: B5 RNA 1
# RNA 2: B5 RNA 2 with U27A, A28U, G29C, A52C, G53A
# B10: target 2 MT 5'PFS UAG 3'PFS AGA (mixed)
# RNA 1: B5 RNA 1
# RNA 2: B5 RNA 2 with G54A
# B11: target 2 MT 5'PFS CGG 3'PFS UUU (mixed)
# RNA 1: B5 RNA 1
# RNA 2: B5 RNA 2 with U27C, A28G, A52U, G53U, G54U
# B12: target 2 MT 5'PFS CAU 3'PFS CAU (mixed)
# RNA 1: B5 RNA 1
# RNA 2: B5 RNA 2 with U27C, G29U, A52C, G53A, G54U
# B13: target 2 MT 5'PFS CAU 3'PFS CAG (mixed)
# RNA 1: B5 RNA 1
# RNA 2: B5 RNA 2 with U27C, G29U, A52C, G53A
# B14: target 2 MT 5'PFS AUC 3'PFS CAU (mixed)
# RNA 1: B5 RNA 1
# RNA 2: B5 RNA 2 with U27A, A28U, G29C, A52C, G53A, G54U
# B15: target 2 MT 5'PFS GGG 3'PFS UUA (mixed)
# RNA 1: B5 RNA 1
# RNA 2: B5 RNA 2 with U27G, A28G, A52U, G53U, G54A
# B16: target 2 MT 5'PFS CGA 3'PFS CAA (mixed)
# RNA 1: B5 RNA 1
# RNA 2: B5 RNA 2 with U27C, A28G, G29A, A52C, G53A, G54A
# B17: target 2 MT 5'PFS AGG 3'PFS AGU (mixed)
# RNA 1: B5 RNA 1
# RNA 2: B5 RNA 2 with U27A, A28G, G54U
# B18: target 2 MT 5'PFS AUC 3'PFS ACA (mixed)
# RNA 1: B5 RNA 1
# RNA 2: B5 RNA 2 with U27A, A28U, G29C, G53C, G54A
# B19: target 2 MT 5'PFS GAC 3'PFS UGA (mixed)
# RNA 1: B5 RNA 1
# RNA 2: B5 RNA 2 with U27G, G29C, A52U, G54A
# B20: target 2 MT 5'PFS CAU 3'PFS AAC (mixed)
# RNA 1: B5 RNA 1
# RNA 2: B5 RNA 2 with U27C, G29U, G53A, G54C
# B21: target 2 MT 5'PFS GAC 3'PFS UGU (mixed)
# RNA 1: B5 RNA 1
# RNA 2: B5 RNA 2 with U27G, G29C, A52U, G54U
# B22: target 2 MT 5'PFS AUC 3'PFS ACU (mixed)
# RNA 1: B5 RNA 1
# RNA 2: B5 RNA 2 with U27A, A28U, G29C, G53C, G54U
# B23: target 2 MT 5'PFS UGG 3'PFS UCA (mixed)
# RNA 1: B5 RNA 1
# RNA 2: B5 RNA 2 with A28G, A52U, G53C, G54A
# B24: target 2 MT 5'PFS UUC 3'PFS CUC (mixed)
# RNA 1: B5 RNA 1
# RNA 2: B5 RNA 2 with A28U, G29C, A52C, G53U, G54C
# B25: target 2 MT 5'PFS GAC 3'PFS UGC (mixed)
# RNA 1: B5 RNA 1
# RNA 2: B5 RNA 2 with U27G, G29C, A52U, G54C
# B26: target 2 MT 5'PFS GGG 3'PFS UUU (mixed)
# RNA 1: B5 RNA 1
# RNA 2: B5 RNA 2 with U27G, A28G, A52U, G53U, G54U
# B27: target 2 MT 5'PFS CAC 3'PFS CCC (mixed)
# RNA 1: B5 RNA 1
# RNA 2: B5 RNA 2 with U27C, G29C, A52C, G53C, G54C
# B28: target 2 MT 5'PFS AGG 3'PFS AGG (mixed)
# RNA 1: B5 RNA 1
# RNA 2: B5 RNA 2 with U27A, A28G
# B29: target 2 MT 5'PFS UAG 3'PFS AGC (mixed)
# RNA 1: B5 RNA 1
# RNA 2: B5 RNA 2 with G54C
# B30: target 2 MT 5'PFS CGA 3'PFS CAC (mixed)
# RNA 1: B5 RNA 1
# RNA 2: B5 RNA 2 with U27C, A28G, G29A, A52C, G53A, G54C
# B31: target 2 MT 5'PFS AAA 3'PFS UAC (mixed)
# RNA 1: B5 RNA 1
# RNA 2: B5 RNA 2 with U27A, G29A, A52U, G53A, G54C
# B32: target 2 MT 5'PFS CAU 3'PFS AAU (mixed)
# RNA 1: B5 RNA 1
# RNA 2: B5 RNA 2 with U27C, G29U, G53A, G54U
# B33: target 2 MT 5'PFS UGA 3'PFS CUU (mixed)
# RNA 1: B5 RNA 1
# RNA 2: B5 RNA 2 with A28G, G29A, A52C, G53U, G54U
# B34: target 2 MT 5'PFS CAU 3'PFS AAA (mixed)
# RNA 1: B5 RNA 1
# RNA 2: B5 RNA 2 with U27C, G29U, G53A, G54A
# B35: target 2 MT 5'PFS GGG 3'PFS UUC (mixed)
# RNA 1: B5 RNA 1
# RNA 2: B5 RNA 2 with U27G, A28G, A52U, G53U, G54C
# B36: target 2 MT 5'PFS UUG 3'PFS UCA (mixed)
# RNA 1: B5 RNA 1
# RNA 2: B5 RNA 2 with A28U, A52U, G53C, G54A
# B37: target 2 MT 5'PFS CAC 3'PFS CCU (mixed)
# RNA 1: B5 RNA 1
# RNA 2: B5 RNA 2 with U27C, G29C, A52C, G53C, G54U
# B38: target 2 MT 5'PFS CAU 3'PFS AAG (mixed)
# RNA 1: B5 RNA 1
# RNA 2: B5 RNA 2 with U27C, G29U, G53A
# Molecular target: T1, EsCas13d, nuclease-dead
# Test: crRNA (strand 1, pre-loaded); Mg2+; 40 mM Tris-HCl pH 7.5, 150 mM NaCl, 6 mM MgCl2, 1 mM DTT, 0.1% Tween-20, 0.2 mg/ml BSA; 25 C; 10 min per concentration, then washed
# Details: tags: His6-TwinStrep-SUMO cleaved; N-terminal SNAP kept (SNAP-Surface 488); label: 3' end held by stalled T7 RNA polymerase
row,Binder,Kd [nM]
1,B1,9.2 ± 0.9
2,B2,80 ± 14
3,B3,16.1 ± 1.9
4,B4,29 ± 4
5,B5,2.74 ± 0.24
6,B6,4.5 ± 1.2
7,B7,27.6 ± 3.4
8,B8,9.6 ± 0.6
9,B9,80 ± 40
10,B10,2.53 ± 0.33
11,B11,15 ± 2.7
12,B12,4.9 ± 0.9
13,B13,3.25 ± 0.3
14,B14,78 ± 27
15,B15,14.9 ± 1.7
16,B16,6.5 ± 2
17,B17,4.04 ± 0.32
18,B18,~70
19,B19,12.9 ± 2

row,Binder,Kd [nM]
1,B20,4.2 ± 0.6
2,B21,23 ± 4
3,B22,~41
4,B23,8.5 ± 0.9
5,B24,~32
6,B25,14.4 ± 2.7
7,B26,48 ± 12
8,B27,25 ± 10
9,B28,5.2 ± 0.6
10,B29,1.91 ± 0.21
11,B30,9 ± 4
12,B31,~6.7
13,B32,4.4 ± 0.7
14,B33,14.1 ± 3
15,B34,4.2 ± 0.7
16,B35,42 ± 15
17,B36,~70
18,B37,~33
19,B38,4.9 ± 0.7
